For the test, the target named is T1, N-terminal FLAG-tagged human ROBO4 extracellular region/domain deletion variant hROBO4-132 (human, UniProt Q8WZ75 132-1007).
T1 construct: On transfected HEK293 cells; also called pCI-FLAG-hROBO4-132; pCI-hROBO4-132
T1 sequence: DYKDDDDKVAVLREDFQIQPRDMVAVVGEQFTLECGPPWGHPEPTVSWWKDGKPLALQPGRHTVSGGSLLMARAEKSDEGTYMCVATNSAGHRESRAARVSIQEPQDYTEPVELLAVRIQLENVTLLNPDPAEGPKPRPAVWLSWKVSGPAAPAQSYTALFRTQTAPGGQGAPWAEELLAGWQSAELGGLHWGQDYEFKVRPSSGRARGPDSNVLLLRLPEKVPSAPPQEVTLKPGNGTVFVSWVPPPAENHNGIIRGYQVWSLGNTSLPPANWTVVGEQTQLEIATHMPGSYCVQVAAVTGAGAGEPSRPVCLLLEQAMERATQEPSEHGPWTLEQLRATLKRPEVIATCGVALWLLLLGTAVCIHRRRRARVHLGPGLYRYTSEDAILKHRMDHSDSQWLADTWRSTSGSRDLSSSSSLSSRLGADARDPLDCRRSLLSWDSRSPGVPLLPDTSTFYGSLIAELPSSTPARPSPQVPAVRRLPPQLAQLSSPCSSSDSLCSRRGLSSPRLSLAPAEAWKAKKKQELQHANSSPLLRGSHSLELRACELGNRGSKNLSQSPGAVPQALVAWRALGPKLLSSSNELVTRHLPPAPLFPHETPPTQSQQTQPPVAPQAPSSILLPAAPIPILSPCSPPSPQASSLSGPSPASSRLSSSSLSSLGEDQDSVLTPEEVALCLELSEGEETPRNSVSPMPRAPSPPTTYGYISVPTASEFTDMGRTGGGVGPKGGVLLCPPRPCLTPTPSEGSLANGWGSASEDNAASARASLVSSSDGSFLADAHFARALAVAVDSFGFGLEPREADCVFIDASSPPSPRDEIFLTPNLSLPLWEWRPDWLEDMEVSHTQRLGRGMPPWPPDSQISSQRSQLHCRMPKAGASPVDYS
The experiment in a line: flow cytometry, HEK293 cells transfected with pCI-FLAG-hROBO4-132, antibody at 10 µg/mL, anti-mouse IgG FITC; control histogram IgG (Mouse IgG2a). As for the experimental part:
HEK293 cells were inoculated at a concentration of 1.5×10⁶ cells/dish to a 60-mm dish (manufactured by Corning Inc.) and cultured overnight in a DMEM medium containing 10% FBS at 37° C. under 5% CO₂ conditions. […] On the next day, the expression vector-transfected cells were treated with TrypLE Express (manufactured by Life Technologies Corp.), washed with PBS containing 5% FBS, and then suspended in PBS containing 5% FBS. The obtained cell suspension was used in flow cytometry analysis.
Each cell suspension prepared in 4)-5-1 was centrifuged, and the supernatant was removed. Then, MAb1, a positive control Monoclonal ANTI-FLAG M2 antibody produced in mouse, or a negative control Mouse IgG2a was added at a concentration of 10 μg/mL to 2×10⁵ expression vector-transfected cells, and the resulting suspension was left standing at 4° C. for 1 hour. The cells were washed once with PBS containing 5% FBS. Then, Anti-Mouse IgG FITC conjugate diluted 1000-fold with PBS containing 5% FBS was added thereto, and the resulting suspension was left standing at 4° C. for 1 hour. […] Data was analyzed using Flowjo. The histogram of FITC fluorescence intensity was prepared. The antibody was determined to bind to a cell when the histogram of MAb1 was shifted to a stronger fluorescence intensity region compared with the histogram of the negative control Mouse IgG2a. […]

The values below come from patent US20150098945A1 (Daiichi Sankyo, published 2015).

B1: anti-ROBO4 mouse monoclonal antibody MAb1 (antibody, mouse IgG1, V domains shown)
VH: EVQLVESGGGLVKPGGSLKLSCAASGFTFSTYAMSWVRQTPEKRLEWVATISNGGTYTYYPDSVKGRFTISRDNAENTLYLQMSSLRSEDTAMYFCARLIYYDYLDYWGHGTTLTVSS
VL: DAVMTQTPLSLPVSLGDQASISCRSSQSLENSNGNTYLNWYFQKPGQSPQLLIYRVSNRFSGVLDRFSGSGSGTDFTLKISRVEAEDFGVYFCLQVTHVPWTFGGGTKLEIKR
notes: Mouse IgG1 (gamma1), kappa light chain, purified from hybridoma supernatant; also called parent antibody MAb1
As for B1, the binding result is on record as “binds”.
